Paper doi:10.64898/2025.12.20.695652 (bioRxiv, 2025)

Target: N237_S47D with C-terminal human Fc tag
Assay: BLI

## Nipah virus attachment glycoprotein G receptor-binding domain (from UniProt Q9IH62 176-602) (domain or fragment)
  Kd: 3.8 nM
